Consider 2 molecules from PMC9856783, “Identification and Characterization of Aptamers Targeting Ovarian Cancer Biomarker Human Epididymis Protein 4 for the Application in Urine”.

In data set [1] the target is T1, Human epididymis protein 4 (HE4) (human, UniProt Q14508 31-124).
T1 sequence: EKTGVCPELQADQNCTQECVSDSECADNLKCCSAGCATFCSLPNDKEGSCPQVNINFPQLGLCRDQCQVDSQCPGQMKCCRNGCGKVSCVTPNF
The data set can be described thus: thermofluorimetric analysis (SYBR Gold); 1/125 artificial urine; HE4 up to 800 nM; 100 nM DNA, 0-800 nM HE4, 1/125 diluted artificial urine, 1x SYBR Gold, protein buffer (10.1 mM Na2HPO4, 137 mM NaCl, 2.7 mM KCl, 1.8 mM KH2PO4, 1 mM MgCl2); pH. Particulars: protein: commercial; tags: 6xHis; label: SYBR Gold dye (non-covalent). On the technique in general: In DSF a fluorescence change marks the thermal transition of the protein.

Data set [2] concerns the target T1, Human epididymis protein 4 (HE4). As to the kind of experiment: thermofluorimetric analysis (SYBR Gold); preliminary data, urine; 100 nM DNA, 0-800 nM HE4, 1/125 diluted artificial urine, 1x SYBR Gold, protein buffer (10.1 mM Na2HPO4, 137 mM NaCl, 2.7 mM KCl, 1.8 mM KH2PO4, 1 mM MgCl2); pH. Particulars: protein: commercial; tags: 6xHis; label: SYBR Gold dye (non-covalent).

B1: Scramble aptamer DNA (ssDNA)
DNA: ATCGCGTCCGTCAATTACCTACGCTGCACCACTTATGAGCCGGTATCGCCATCCGTCAACTCACGCCTCC
Consider B1, for which the binding result in data set [1] is recorded as “no binding”.

B2: AHE2 (ssDNA)
DNA: TCGCACATTCCGCTTCTACCGCCAACATCGTACTCCATCTGCCACCCCCACGTAAGTCCGTGTGTGCGAA
As for B2, in data set [2], the binding result is “no binding”.
